Data published in publication PMC4970670, “Mek1 Down Regulates Rad51 Activity during Yeast Meiosis by Phosphorylation of Hed1” (PLoS Genetics, 2016).
Substitutions are numbered along the chain they refer to. Values belong to the binder of their own block, whether it stands above or below them.

Molecular target: T1, Rad51 (S. cerevisiae, UniProt P25454 1-400)
T1 construct: Rad51 recombinase of S. cerevisiae; Used as 0.6 ug of protein in the pull-down
T1 sequence (looked up): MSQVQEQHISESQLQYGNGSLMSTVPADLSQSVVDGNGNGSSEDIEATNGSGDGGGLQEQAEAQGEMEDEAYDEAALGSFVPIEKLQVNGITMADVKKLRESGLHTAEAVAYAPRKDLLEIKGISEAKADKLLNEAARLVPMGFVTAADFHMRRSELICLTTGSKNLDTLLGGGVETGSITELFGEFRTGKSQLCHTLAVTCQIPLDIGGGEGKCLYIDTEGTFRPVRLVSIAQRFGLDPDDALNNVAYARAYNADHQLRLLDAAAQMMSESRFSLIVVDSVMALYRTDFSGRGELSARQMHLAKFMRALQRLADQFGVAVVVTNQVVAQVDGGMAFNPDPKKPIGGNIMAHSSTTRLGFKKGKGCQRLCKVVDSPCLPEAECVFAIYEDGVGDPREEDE
Assay: pull-down; GST-Hed1 WT or 3A (0.6 ug) incubated with Rad51 (0.6 ug), affinity pull-down with Glutathione Sepharose beads; supernatant, wash and SDS-eluate analysed by SDS-PAGE and Coomassie staining
Conditions: both partners purified

binding result: binds
B1: GST-Hed1 (natural protein, S. cerevisiae, UniProt Q03937 1-162, looked up)
chain: MQQRSNRRSCSYIPLGVHNNAEKSLCTEVAPARKNKRSITTSPIVNINVVERRLFNLELEKQQLRAKNLSENTGGGSPNGGAYLDAKKGVREQDQYQGGPSKELDRLQPPPSMKKSPPRKKKSLKDLIYETNKTFYQVDSNKVKYKVGLSKKQLLPSKTVDN
notes: Hed1, meiosis-specific protein of S. cerevisiae; also called GST-Hed1 WT; recombinant GST-Hed1; source: E. coli, purified

binding result: binds
B2: GST-Hed1-3A (natural protein, S. cerevisiae, UniProt Q03937 1-162, looked up)
chain: B1 chain with T40A, T41A, S42A
notes: Hed1, meiosis-specific protein of S. cerevisiae, with T40, T41 and S42 all substituted with alanine; source: E. coli, purified
